Target: Escherichia coli MRE600 30S ribosomal subunits (E. coli)
Test: ITC

- Kd: 806 nM
B1: initiation factor IF1 (natural protein)
chain: MAKEDNIEMQGTVLETLPNTMFRVELENGHVVTAHISGKMRKNYIRILTGDKVTVELTPYDLSKGRIVFRSR

From publication doi:10.1101/2021.05.24.445485
